Reference: the supplement of paper PMC10567573

B1: PSD2 (parent)
chain: PLMGETQERERVLTHFSRRYCQCN

Variants of: B1
Assay: protein stability index of a GFP-peptide fusion (GPS, HEK-293T) (PSI 1-6); higher = more stable
Details: c terminus: a fixed tail appended
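Further: lentivirally expressed fusions sorted by FACS into six bins by GFP to DsRed ratio, PSI derived from sequencing read proportions per bin multiplied by bin number.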

Variant	protein stability index
P1C	2.34
P1L	1.67
H15S	3.18
H15C	2.9
H15D	3.15
H15A	2.62
H15K	3.41
H15T	3.03
F16S	4.35
F16V	3
F16T	3.91
C21H	2.62
C21G	4.23
N24Y	2.22
N24D	3.23
N24L	2.71
N24E	3.84
N24K	2.2
N24H	3.21
G4P	3.62
G4D	3.24
G4T	3.86
G4Y	2.06
G4S	2.92
G4H	2.93

Variant	protein stability index
G4A	3.3
G4E	3.95
R19T	3.21
R19F	2.88
R19W	2.14
R19N	3.54
R19S	3.28
R19Q	3.29
R19P	3.59
R9Q	2.18
R9D	3.79
R9H	3.23
R9S	2.49
R9C	2.68
T6K	2.14
L2M	2.56
L2A	3.59
L2Y	1.9
L2C	3.52
Q22I	2.09
Q22S	3.04
Q22Y	2.08
Q22V	1.69
V12Q	3.6
V12W	3.26

Variant	protein stability index
V12M	2.85
V12Y	3.25
V12I	3.05
R11Q	3.46
R11T	3.06
R11M	2.64
R11S	2.53
R11V	3.46
C23Y	2.85
C23Q	4.39
C23F	3.18
C23A	4.01
C23N	4.07
Q7C	3.6
Q7S	3.11
Q7D	3.72
Q7T	2.69
Q7R	2.26
Q7V	3.27
L13A	2.71
L13F	2.51
L13E	3.6
L13H	3.6
E8Q	3.54
E8R	2.78

Variant	protein stability index
E8D	3.46
E10S	2.14
M3W	2.79
M3Y	2
M3H	3.22
T14P	2.88
T14Q	2.56
T14S	3.18
T14L	2.02
T14E	2.93
R18H	3.96
R18K	3.09
R18M	2.14
R18V	2.02
R18I	2.27
R18G	4.12
E5M	1.87
E5F	2.74
E5C	1.32
Y20S	3.84
Y20R	3.95
Y20K	3.92
Y20P	3.72
S17Q	2.97
S17H	3.2
